# Reference: the DeepSol protein solubility set
# Experiment: soluble on expression in E. coli; label from the status in PepcDB or PDB records
row,Sequence,soluble on expression in E. coli
1,MGSDKIHHHHHHEATETQNEKVKVKVETVSVQDVEQLSEFTATVEANIKNNIAPQTPFRIEKIFAEVGDHVKAGQLLAKMDATSLKQAKIQLDNQEIEFKRIDELYKVGGASKSAWDAQKTSLEVARETYKNLVENTQLLSPISGIVTARNYDSGDMYSGGNPIYTVEEIRPVKLMVNVSESLFTKVKKGHEVDIRLDVYGDEVFKGKVNLVYPTIDPATRTFPVEIKIANSDERVRPGMFARVTMSFGHMDHVVAPDRSIVKQSGAGDRYIYVCKDGKVSYQKVKLGRRMGDKYEIISGVEDGDQVVITGQSRLTNGMEVEIENE,not soluble
2,MGKNKQNKFFQMKASANGKTADVFIYGEITKYAWEEYGEVSSITFKNELDELGDDIKTINLYINSPGGSVFETMAIIAMLQRHHAKIISYIDGIGASCASVLPMISDKIIMYANSMMMIHNAWTYASGNADQLRKAADDIERINQSMVQHYLTRAGDKLDEDTLKQLLDAETWLSAEEAMGYGLCDEIIPANNATACLDEKWMKEYKNIPQQLVNAQANISSNEMLERQKIAEEAKANADYIKTILGRIHS,not soluble
3,MGSDKIHHHHHHMRKPGDFLESGMTESVNEKADVMKVPVPNLALGMYVAAIDHQGRVNITNPGQIKDRQAIDKLVRNGIEYVWVDVERSAPECGLRPKQEPEKIIRLTRDQSQEKAKRLMSEAKDLVKKVLSETFEGKAVKVEPFEALADKMLESVMLDADAFKCISALRSKDAYLLEHSINVAFLLVTFGRYLKLKRSVLKQLAVGGILHDIGKVRVNNRILHKPGRLTPEEFEHMKLHQVYAQEILAETEDLSQISRDVCLMHHEKLDGKGYPNGLKGEEISLHGRMSCIVDIFDALTATRCYKEAMSPAAAFKILLSLTPFHLDEKLVYEFIRCVGIYPVGSLVQLSDGRIGIVWEAKDRDALHPVLKTFYSVKHKHYTEVTMVDLLKSDLFIERGVSPSSLDVDPTPFY,not soluble
4,MAAQATAETPAGELPVIDAVTTHAPEVPPAIDRDYPAKVRVKMETVEKTMKMDDGVEYRYWTFDGDVPGRMIRVREGDTVEVEFSNNPSSTVPHNVDFHAATGQGGGAAATFTAPGRTSTFSFKALQPGLYIYHCAVAPVGMHIANGMYGLILVEPKEGLPKVDKEFYIVQGDFYTKGKKGAQGLQPFDMDKAVAEQPEYVVFNGHVGALTGDNALKAKAGETVRMYVGNGGPNLVSSFHVIGEIFDKVYVEGGKLINENVQSTIVPAGGSAIVEFKVDIPGNYTLVDHSIFRAFNKGALGQLKVEGAENPEIMTQKLSDTAYAVPR,soluble
5,SALDTNYCFRNLEENCCVRPLYIDFRQDLGWKWVHEPKGYYANFCSGPCPYLRSADTTHSTVLGLYNTLNPEASASPCCVPQDLEPLTILYYVGRTPKVEQLSNMVVKSCKCS,soluble
6,TQPPQPDAQSPYSKRYDPTKDYPLSSPAGGMNNFSDVEPRGRLDEKAATDRADALAKNAQRNIEQKGIDSPEQYGRNYKQGTPFGERVKNLGEDIGSSANELGEGVVKGTQRGIENLKGNTQNAAEDATKNVQRGAEDAGRNVRRTADDAGNAVKRAVD,not soluble
7,MINKTKEKLILIGMPGSGKTTIGKLLAKEYNCSFCDMDDYIIQISQKSIAELFSEGEDIFRNYETQACRELSISDKTVISTGGGVIKKDVNMEILKETGIIIFIDRPIQKILEDININSRPLLKNGKDRLYNLYNERINLYKKFSDIEILNDKSLNNAVYNITNAVSENFKFDFKEK,not soluble
8,MDSPRVERFRAQVTDTFVPNLTWAMAPVTATINLFQDFQSYQRLAQQNRELRSELRRMQAWKEAALQLEQENARLLDLNNVRLDPRLTYITGVVLADSGSPFRQSVLINVGSRDGLVDGWATMDGIGLVGRISGVADKTARVILLTDASSRIPAIIQPSGQRVIVSGDNSAAPFIDFLEDSDLVKPGHRVISSGDGGVFPAGLLIGQVAADPTGKLRVIMAADYQRLEFLRVLRHHGTTTVSDSAQIIGPQLPVAEATQLEHHHHHH,not soluble
9,MTSIRKWQVGESLPEVTLAPVSRLDLIKYAGASGDYNPIHTIDEEAKKAGLPGIIAHGMWTMGNLAKLFTPYYEEGFVQDYFVRFQSMVFLNDVITLKATVKEKDKKAIRFAVAAVNQHGKEVIKGEAVFSLYE,not soluble
10,MDWVRLLSRLVQAESLPGEEGEAAGLLLEALKGMGLEATLDEAGNIEALLGEKGPEVVLTGHMDVVPVGDPARWPYPQGAVAEGSLWGRGAVDMKGSLVAMLLALETLARGALKGRVRFLAVVQEEVGGLGSRFAAERLSPLAFVLGEPSSGRLMRGHRGRRKVWADFEGRETHAALAGPENPLFDLGAYLLALQDLPLPPGVKLTPTRVDTHPGARNQTPGVVRLYLDVRYEPEADLDGLLAALRTLGPASVYLPEEERASGEVRMTLPALWPPYRLPEDHPLLQAALQALGQEEAGLWPFTTDAPYLGAKAPVLGLGPGDPALAHTPMEHVPLRAVEEAAQAYVRLVEALWNAD,soluble
11,DAPAGGNAFEEMEKHAKEFQKTFSEQFNSLVNSKNTQDFNKALKDGSDSVLQQLSAFSSSLQGAISDANGKAKEALEQARQNVEKTAEELRKAHPDVEKEANAFKDKLQAAVQTTVQESQKLAKEVASNMEETNKKLAPKIKQAYDDFVKHAEEVQKKLHEAATKQ,soluble
12,MGSDKIHHHHHHVKKLLNTLFINQSDSYLALDGGNVLVKADGQVLGRVPLHNLEGIVAFGYTGASPALMGHCAENGIALTFMTKNGRFLARVIGESRGNVVLRKTQYRRSDDEVASARLAKNFILGKLYNQKWMLERMTRDYPLRLDVERFKTTSQDMTETMREIQVCENLERLRGLEGTIAVRYNRLFDSMILQQKEDFHFKGRTRRPPLDRVNAMLSFAYSLLARDVSAALEAVGLDAYVGFLHRERPGRASLALDVMEELRGIYADRFVLSLINKKVIQGKDFLQKENGAVIMTEEGRKTFLTAWQKKKQETIQHPYLKEKMMWGLVPYEQALLLARHLRDDLEAYPPFLYK,not soluble
13,AHHHHHHGSSIKIELFGITFENPLILASGVVDMTPELLRRAHKEGAGGVVTKSIGIEPRKGYDNPTVVEVPCGLINAMGLPNPGWKAFLEEFEKESFDFPVIVSIFGGNPEEFAFLAEKLERVGDAFELNLSCPHAKGYGLEIGQDPENVYRVVKAVKDVTDKPVIAKLTPNTSDITKLGLAAEKAEADGVSAINTLKAIAIDIYAKRPILSNKFGGYSGPGIKPIALRAVYDLASKLDIPIIGIGGITTWQDAVEFLLAGASAVQIGTAVYLKGFSVFREIAEGIRKYLEEEGFSSVKEIIGLAQKV,soluble
14,MGSDKIHHHHHHMAVRKAMKYSLGPVLWYWPKETLEEFYQQAATSSADVIYLGEAVCSKRRATKVGDWLEMAKSLAGSGKQIVLSTLALVQASSELGELKRYVENGEFLIEASDLGVVNMCAERKLPFVAGHALNCYNAVTLKILLKQGMMRWCMPVELSRDWLVNLLNQCDELGIRNQFEVEVLSYGHLPLAYSARCFTARSEDRPKDECETCCIKYPNGRNVLSQENQQVFVLNGIQTMSGYVYNLGNELASMQGLVDVVRLSPQGTDTFAMLDAFRANENGAAPLPLTANSDCNGYWRRLAGLELQA,not soluble
15,MQSATDVAEYCKYDGFDGLKRAISLSDEEILNELDIAHLRGRGGAAYPLGKKWRHLYHAKGTTKYIVCNADEGEPGTFKDKVLLSEDPLSVIEGMIIAGYLFSAKAGYIYMRGEYRRIQKTFQEALDNARQAGFLGENILGIEGFNYDITIISGAGAYICGENSALLNSIEGKTGRPRVKPPHLADVGLYLQPTLVNNVESFASVPVILREGGQAFLEMGTADGGGTKLICLSGHIKNRGLYEVNLGTPLEEIIYGEQYGGGSATGRALKFIHFGGQSGPIGAVATLRDCLYSYEDLWAHDLSVGSGAIVVMDDSVNVVDYLVHVAAFFAHESCGKCTPCRLGTTRILELLSKFNRNEATASDLPRLEKMLTHVTRLSACGLGQSVANPMKSALALFPEEFETTAETEIYATSKGGWLEHHHHHH,not soluble
16,MGSDKIHHHHHHMSEILVLGGGMVGISTALELQARGHAVTVVDRKAPGQETSYGNAGLIQAEAAEPYAMPRALPEILGILSGRSNDVIWSLRGVLSQLPALWQYYRYSHPHRHLALSQPNAHLIRTACADHDRWITAAAAQDLIAQDGYLSVFQDAAMFDSLASDLERLRQSYGVEATAMSGPQLCKMEPLYQRPPVGGIHWRDVWSCAAPGELVARYAALFQSRGGEICTGDASTLRPEGSAWALMSEAGRLHGEHAVIALGPWTPPILAQLGYRVRMIMKHGAHRMYPTGPKLRRPVHDAQHGIVLSSMKGGLRMTCGVALEASGRVPDARQLDRGAKGLAAYMDLGTAEGGPIWHGTRPFLPDMLPMVGAAPRHDRLWFHFGHGHQGFTLGPTTARHLGALIDGGDSAGIAALLPQNRPAVLS,not soluble
17,ACTKNAIAQTGFNKDKYFNGDVWYVTDYLDLEPDDVPKRYCAALAAGTASGKLKEALYHYDPKTQDTFYDVSELQVESLGKYTANFKKVDKNGNVKVAVTAGNYYTFTVMYADDSSALIHTCLHKGNKDLGDLYAVLNRNKDAAAGDKVKSAVSAATLEFSKFISTKENNCAYDNDSLKSLLTK,soluble
18,DLPGVVIFLHGVNDPGASYESVETGLCQGVNERLDRPDLVPGRYGGKYKEAGNVPYEKRDSDQKVILDDPDTYLYRRDASDPKTHSLLIPFYWGHRAAPDQIKRDDAGDPFRMRNQFQDINGNRLDRHFAKAGGFIANATNNIPDVYGEGFRPNLKSIALETFKPDNALYFGHSPARHYCVLAAHRLAMLIREIRRVSPDETITIMGHSQGTIVTLLAQALLVDGGDRCADTFIMVDTPYCVLPGNTPKDQDTFSTLVGIVTAITNMPHTQPAMSELRDAKTYCGRSGSRWLPTQGIRKNKVGSMTVFPERDNRGKVYLYFCPDDTTVSLDDVQ,not soluble
19,MNNIRQLTKDEYPKAIELSWQVFTITGKEDFNNEGLEFFKSFIYNKKCINEIIFYGSFDNEALTGILGIKSNGKHISLFFIKPEYHRHGLGKKLFHYASTLHPSIETTVNSSTYAIPFYRSLGFAVVGEKQNYHGLCSTPMRRYHAVFVQKNKYTLRTWQTEDAHSLVQELNNKKIWDNCRNVFPHPYRLEHAETFIDLIQKKEGIHDFCIEVNGKAVGNIGFTPGTDVECFNAEVGYVIGEKYWNQGIVTDALQEAIYHYFTYTNTIRIFALVFEHNLPSMRVLEKAGFNKVGIMTKSIFKNGHFTNAHLFELLKNVLEHHHHHH,not soluble
20,MDTGELHDLTVKGAVVTQLERCEVACQRLFQNLALLGLELQNSESITEGVCDSKAASDLGSSVELLENEERALRLCVDRFVLELRQVENLAKTLDGIREEEERILSLEQRSIEQAERCFYLWNDAREMLRGTRLTSIKEVLESAARYPRIPSWTPLPTSN,not soluble
21,MKKWEKQTMKIAALGAMALTLAGCATAKSSSSQGNNPGKTIKIGVNMELSGSAAGYGEQQKQGIQLAVKKINKSGGIKVGGTKKKIQLVIRDNKTSNTTAASVAAQLVNNDKVVAVVGPATTSAGTAAIPNMTKAAVPSVSPSATDPDYTLQKSGKVQKYIFRACYQNNFQGATAATFVTKNLKAKRVAILTDNSSDYGTGLTKAFKKQYRGTVVSSQTFQEGDKDFNAILTALKHKKIDAIYAPGYYSEIGLIVKQARQAGIKAPIVGSDGMADAKLAQIAGKSNATNVYYTTPFSTKASATNKVASKFMSAYKAKYGSTAPTFSALAYDSVYMIKAAIEKEGSANSVKIADGLAKLKNFKGVTGTMTIDKQHNPEKTISIEQLTNGVVSKVYNVK,soluble
22,MQSWYLLYCKRGQLQRAQEHLERQAVSCLTPMITLEKMVRGKRTSVSEPLFPNYLFVEFDPEVIHTTTINATRGVSHFVRFGAHPAIVPSSVIHQLSIYKPEGVVDPETPYPGDSVIITEGAFEGLKAIFTEPDGETRSMLLLNLLNKEVKQSVKNTGFRKI,not soluble
